The values that follow come from patent US20210253725A1 (BIONTECH, published 2021).

The target of test [1] is T1, CD27 protein (His-tagged, Sino Biological Inc. 10039-H08B1) (human, UniProt P26842 20-192).
T1 construct: bought; coated onto ELISA plates; also called human CD27; recombinant protein; not shown: His tag
T1 sequence (looked up): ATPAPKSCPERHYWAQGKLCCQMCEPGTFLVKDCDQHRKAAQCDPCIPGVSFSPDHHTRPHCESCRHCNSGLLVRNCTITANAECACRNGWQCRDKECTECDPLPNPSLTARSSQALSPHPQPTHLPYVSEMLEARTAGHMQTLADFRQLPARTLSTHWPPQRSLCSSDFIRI
The experiment in a line: ELISA on coated His-tagged CD27.

Test [2] deals with T2, CD27 expressed on the cell surface (HT1080_CD27 cells) (human, UniProt P26842 20-260).
T2 construct: whole, on cells; also called K562_CD27
T2 sequence (looked up): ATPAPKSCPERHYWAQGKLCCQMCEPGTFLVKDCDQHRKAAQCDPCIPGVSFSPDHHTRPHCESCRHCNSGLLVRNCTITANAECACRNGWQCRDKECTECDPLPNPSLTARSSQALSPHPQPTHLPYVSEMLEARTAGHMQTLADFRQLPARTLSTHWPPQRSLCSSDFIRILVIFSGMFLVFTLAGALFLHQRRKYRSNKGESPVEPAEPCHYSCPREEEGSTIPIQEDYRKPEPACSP
The experiment in a line: cellular binding assay, HT1080_CD27 cells.

Test [3] has as its target T2, CD27 expressed on the cell surface …. The experiment in a line: cell-based or functional assay.
Note: test concentration or dose not given here.

B1: P018.S.01.A.D05 (antibody, V domains shown)
VH: QSLEESGGRLVTPGTPLTLTCTASGFSLSSYYMSWVRQAPGKGLEYIGGIYTGGSAYYASWARGRFTISRTSTTVDLKMTSLTIEDTATYFCARDAGDRIYTTFNLWGPGTLVTVSS
VL: ALVMTQTPASVSEPVGGTVSLKCQASQSIGSDLSWYQQKSGQPPKLLIYRASKLASGVPSRFKGSGSGTEFTLTISGVQSDDAATYYCLGIDSYSSDDGIAFGGGTEVVVK
notes: V regions on human Ig constant parts; also called AB27_13
On to B1, for which, in test [1], the “ELISA [abs. corr.]” value came to 3.14 abs. corr. Also, in test [2], the “Cellular binding assay [RFU]” value is 273 RFU. For the same molecule, in test [3], the “IL-8, cross-linked by F(ab')2 fragment [abs. corr.]” value (“IL-8, cross-linked” for short) worked out at 1.1 abs. corr and the “IL-8 [abs. corr.]” value amounted to 0.089 abs. corr.

B2: P018.S.03.A.F03 (antibody, V domains shown)
VH: QSLEESGGRLVTPGGSLTLTCTVSGIDLSSYAMGWVRQAPGKGLEYLGIIYTSNRTHYATWAKGRFTISKTSSTTVDLKATSLTTEDTATYFCGRYGRGSGGYYYGMDLWGPGTLVTVSS
VL: DIVMTQTPASVEAAVGGTVTIKCQASQSGDDYCSWYQQKPGQRPKLLIYAASTLASGVPSRFRGSRSGTEYTLTISDLESADAATYYCQNYCAGSGVCLGVAFGGGTEVVVK
notes: V regions on human Ig constant parts; also called AB27_54
As to B2, the “ELISA [abs. corr.]” value in test [1] came out at 3.15 abs. corr. Besides, the “Cellular binding assay [RFU]” value in test [2] came out at 223 RFU. In test [3], the “IL-8, cross-linked” value was determined as 1.35 abs. corr and the “IL-8 [abs. corr.]” value came to 0.106 abs. corr.

B3: P018.S.01.A.A05 (antibody, V domains shown)
VH: QEQLEESGGDRVQPEGSLTLTCTASGFSFSATYWICWVRQAPGKGLEWIACIFGRSSSDTYYASWAKGRFTISKTSSTTVTLQMTSLTAADTATYFCARGDSGHPYYYSFNLWGPGTLVTVSS
VL: AYDMTQTPASVEVAVGGTVTIKCQASQSIGGYLAWYQQKPGQPPKLLIYGASTLASGVPSRFRGSGSGTEFTLTISDLDSADAATYYCQCTHGTRSDWAFGGGTEVVVK
notes: V regions on human Ig constant parts; also called AB27_2
For B3, the “ELISA [abs. corr.]” value in test [1] was 3.15 abs. corr. Besides, the “Cellular binding assay [RFU]” value in test [2] is 300 RFU. Moreover, in test [3], the “IL-8, cross-linked” value was 1.09 abs. corr and the “IL-8 [abs. corr.]” value amounted to 0.328 abs. corr.

B4: P018.S.10.A.C05 (antibody, V domains shown)
VH: QSVEETGGRLVTPGTPLTLTCAASGVSLSGYYAMSWVRQAPGKGLEWIGYLDATGSTYYASWVKGRFIISRPSTTVDLQITSPTIEDTATYFCARGSYDGVGYNWGLWGQGTLVTVSS
VL: DIVMTQTPASVSEPVGGTVTIKCQASESIYNGLAWYQQKPGQPPKRLIYGASTLTSGVPSRFKGSGSGTEFTLTISDLESDDAATYYCQSNYGSGSRSNYIFGGGTEVVVK
notes: V regions on human Ig constant parts; also called AB27_173
Regarding B4, in test [1], the “ELISA [abs. corr.]” value was 3.14 abs. corr. Also, in test [2], the “Cellular binding assay [RFU]” value was 11 RFU. Besides, in test [3], the “IL-8, cross-linked” value worked out at 2.1 abs. corr and the “IL-8 [abs. corr.]” value amounted to 0.206 abs. corr.

B5: P018.S.06.A.C03 (antibody, V domains shown)
VH: QSLEESGGGLFQPGGSLTLTCKASGLDFSTNYYMCWVRQAPGKGLELIACISTSSGNTWYASWAKGRFTISKTSSTTVTLQMTSLTAADTATYFCARCDIVYVGYGYASRLDLWGQGTLVTVSS
VL: AQVLTQTPSPVSAAVGGTVTINCQASESVYNNNNLAWYQQKPGQPPKFLIYGASSLASGVPSRFKGSGSGTQFTLTISDLESDDAATYYCAGGGSTSVGAFGGGTEVVVK
notes: V regions on human Ig constant parts; also called AB27_101
B5: in test [1], the “ELISA [abs. corr.]” value came out at 3.14 abs. corr. Moreover, the “Cellular binding assay [RFU]” value in test [2] came out at 269 RFU. Moreover, in test [3], the “IL-8, cross-linked” value was determined as 1.13 abs. corr and the “IL-8 [abs. corr.]” value stood at 0.272 abs. corr.

B6: P018.S.03.A.B05 (antibody, V domains shown)
VH: QEQLEESGGDLVKPEGSLTLTCTASGFDLSSRYWICWVRQAPGKGLEWIGCIKTGFSNTWYASWATGRFTFSKASSTTVTLQMTSLTVADTATYFCARIAAAASASDDFRLWGPGTLVTVSS
VL: AQVLTQTPSSVSAAVGGTVTISCQSSKSVYNKWLSWFQQKPGQPPKLLIYDASDLASGVPSRFKGSGSGTEFTLTISDVQSDDAATYFCLGHYDSSSDRFVFGGGTEVVVK
notes: V regions on human Ig constant parts; also called AB27_43
As for B6, the “ELISA [abs. corr.]” value in test [1] turned out to be 3.14 abs. corr. Moreover, the “Cellular binding assay [RFU]” value in test [2] worked out at 206 RFU. For the same molecule, in test [3], the “IL-8, cross-linked” value is 1.21 abs. corr and the “IL-8 [abs. corr.]” value was found to be 0.325 abs. corr.
